T1: YcjW S258N (Escherichia coli K-12 MG1655, UniProt P77615 1-332, S258N)
T1 sequence: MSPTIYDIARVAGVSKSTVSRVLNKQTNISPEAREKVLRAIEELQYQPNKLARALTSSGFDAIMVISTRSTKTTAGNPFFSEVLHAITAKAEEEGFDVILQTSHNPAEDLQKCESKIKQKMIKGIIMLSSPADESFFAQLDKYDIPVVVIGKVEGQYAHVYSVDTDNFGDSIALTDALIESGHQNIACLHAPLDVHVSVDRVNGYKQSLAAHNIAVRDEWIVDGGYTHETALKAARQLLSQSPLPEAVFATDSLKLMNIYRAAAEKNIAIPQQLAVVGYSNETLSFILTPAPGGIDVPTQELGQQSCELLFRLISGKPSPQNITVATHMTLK

T2: YcjW (Escherichia coli K-12 MG1655, UniProt P77615 1-332)
T2 sequence: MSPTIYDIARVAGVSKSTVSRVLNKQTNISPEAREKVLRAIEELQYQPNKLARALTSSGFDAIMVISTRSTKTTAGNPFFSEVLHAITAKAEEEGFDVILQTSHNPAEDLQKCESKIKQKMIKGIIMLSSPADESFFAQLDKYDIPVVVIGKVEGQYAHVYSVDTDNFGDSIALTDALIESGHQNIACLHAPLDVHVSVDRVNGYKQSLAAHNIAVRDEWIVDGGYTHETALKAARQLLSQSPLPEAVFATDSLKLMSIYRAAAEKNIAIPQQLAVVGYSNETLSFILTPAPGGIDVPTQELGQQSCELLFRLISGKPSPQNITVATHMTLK

B1: narP EMSA probe (LL62/LL63) (dsDNA)
DNA 1: GGTAACATTCACGCGCCTGGTAGCGTTACCAACGCTACGCTCAAACATAATGATTC
DNA 2: GAATCATTATGTTTGAGCGTAGCGTTGGTAACGCTACCAGGCGCGTGAATGTTACC
B2: ycjM EMSA probe (LL58/LL59) (dsDNA)
DNA 1: GAGTAGTCTCTCGTTTCATGGGACCGCTACCACGGAAAGGCAACATGAAAC
DNA 2: GTTTCATGTTGCCTTTCCGTGGTAGCGGTCCCATGAAACGAGAGACTACTC

Columns and labels:
Conditions in all cases: protein: recombinant; tags: His-SUMO (pET28-SUMO), cleaved with SUMO protease; chain copies: 2; label: 32P 5' end (T4 PNK); blunt
[1] = target: T1, YcjW S258N; assay: EMSA; shift from DNA:protein 1:0.5; no free probe at 1:2; EMSA with 32P-labelled dsDNA; binding buffer as in cited ref 14, not given; sugars preincubated with protein 20 min at room temperature; protein stored in 20 mM Tris-Cl pH 8.0, 50 mM NaCl, 1 mM DTT
[2] = target: T2, YcjW; assay: as above
[3] = target: T2, YcjW; assay: EMSA; shift from about 1:0.5 DNA:protein, increasing with protein; EMSA with 32P-labelled dsDNA; binding buffer as in cited ref 14, not given; sugars preincubated with protein 20 min at room temperature; protein stored in 20 mM Tris-Cl pH 8.0, 50 mM NaCl, 1 mM DTT

Row | Binder | binding result [1] | binding result [2] | binding result [3]
1 | B1 | binds | binds | –
2 | B2 | – | – | binds
